{"source": "the DeepSol protein solubility set", "data": [{"assay": "soluble on expression in E. coli; label from the status in PepcDB or PDB records", "values": [{"sequence": "MEQRDMKTVFLLDRSAKFVENCNETFDVTIREGPKQKKLQFEKTIWTWCLEGIFEMHRILSDVYPRGTLQLRFALADFMGKMLDTQWTDGFLTREELGELIETVSRPSEANTDITPIGGLTMAIEALAVQSPEQRNYNYDVRYSANKRTAQNSEVIRVTRELRGLPPLPTVQNAGNLIMYTRLNTQEEMEQLQTEIVELVVSRNKIADAPSNKTFCPITSLRLFIVNYYATGDECTVKTHSLQAHPDLPLLKIWVISRKAADMCDAIHSLLVDAFDLGSTTVTKIPMKEDNRGSSNYDVELFHSGKVHAMLKENNLIDTVSKKGDSDKGVTYDTMRLTWTTAPKTKWSLFPYHGAAVPCTTAQAYSRPSACLTQFVRDGRCVMLDSEKTTELGMNMHEKLVSHLLIANRGRIFIQEIDFMQKKADRIAGKLKRPRVLHAPEDPINMNQLRHTYKQLELRFVAKNRMDDNLTEKETEKWTGLKNSDLKKRFQRISKNIPCFAADTFIFNEKVTPKLEPLISLITKTTLSENDVDKCKQCIVTLYQMKNERQYVISPESDIKISSVRNLKDPDEQLRVTFVELAKHIMKYVTFSEKHKEIYKTYMTTLNVDKLLEVDLDDDEAVDKMFVKFSFFGKSDTASKTDEDEDSSDDEDEEILKSPALKKLFGYVDARDERKYEELYGQGFKKKKPEVEEKPIVMAKEIKVDIFSNMCDMLEVKESKIRREFVGRETHGNIAPLYPQLAEKLERPASPAATERGTERVRNTAERGGSGTPPPGGRRNFQ", "soluble on expression in E. coli": "not soluble"}, {"sequence": "MGSDKIHHHHHHMNSIQLKAVSFSREQPLFEKTNLAIPQGTFSLLIGDSGSGKSTLLRLIAGFAPLDYQGEILIEGMERRQLSTREKAQKIGMLFQNPSQQFTMKTLERELIFALENLGIPPEEMNRKIQTALQLVQTQTLFTRELATLSGGEKQKAALTVLLAMNPDILLLDEPFASIDPTSRKQFIQILARLHQAGKTILVCDHDFSDYADVVDQVVTLKNGQFEKQPLTFIKTKPQTFQLTTSVVKQPMLQLKNFRLSQGKRVLLEEKEALLFKGITTLTGPNGAGKSTLLKAIVQRQKYQGKMFLAGRRLRASKKLYQHMTLAVQQANRQFVTLTLREELLFGQNMTAEKRRKQEEALTFLGLKEKLEHSVFQLSEGQKKMVQLISLLSLDLDCLLLDEPFAGLDERACNYFVEWIKEKSAQQDFLIVTHRLEPLSGVSNYRIELLQQQLIIWQEGTTCK", "soluble on expression in E. coli": "not soluble"}, {"sequence": "MLTISNQVQLADWEIELTAIRAQGAGGQNVNKVSSAIHLRFDISRSTLPAFYKERLLKMRDHRITKEGIIIIKAQQFRTQEKNREDALDRLKQLIQSATETQKARKETKPTRSSQHKRMDKKSQRGQTKSMRKKVDYLEHHHHHH", "soluble on expression in E. coli": "soluble"}, {"sequence": "QYRPMSEKQFSRPVLIVPPQINKYYIFDLSPANSFVQYALKNGLSTFIISWRNPDIRHREWGLSSYVEAAEQAMNICRAISGAREVNLVGACAGGLTIAALLGHLQVKRQTRRVASATYMVSLLDSQIDSPATLFIDEQALEAAKRRSYQRGVLEGSEMSRVFSWMRPNDLIWTYWINNYLLGKSPPPFDILYWNNDTTRLPAALHGDLLDFFKHNPLSHAGGLEVCGTPIDLQKVTVDSFSVAGINDHITPWDSVYRSTLLLGGDRRFVLANSGHVQSILNP", "soluble on expression in E. coli": "not soluble"}, {"sequence": "MAKTPGLNLSISERASNRLAEIYRNSKENLRISVESGGCHGFQYNLTLEPATKPDIKNDVKDKEFSDDLDDDDSKDIIYVLPEDKGRVIIDSKSLNILNNTTLTYTNELIGSSFKIINGSLKSSCGCGSSFDIEN", "soluble on expression in E. coli": "not soluble"}, {"sequence": "MYAGINYDQLFGTEQVRERQLPLHSSQAQHFLNEVKPILDNRCVVCHACYDAPCQLKMTSAEGIDRGASKALVYQGTRLTAATPTRLYEDAQLTQEWRAAGFHPVLNERNQTAQANLDAGVMARLLMQKERHPLPQQDQLQGFDFSIDREQTCPTINEMDHFEQVNPNWGMPFGMPNLSPKEYTTLLSWLQEGAVMNQALPLSAQEQALVTEYEALLNHSSRKNQLAARYIYEHLFLSHLYFSEIAQERPRFFKLIRSSTPPGEPVKRIVTRRPYDDPGVERVYYRLVPEQETIVDKTHMPFALNKQRIANWKLWFIDADYEVAELPSYRPDIAANPMSAFIDLPVKARFKFLLDNAQNTVMAFIKGPVCRGQLALNVINDRFWVFFLDPEKADLPEVNEFYRSQVNNLKLPAEQENTALPLSNWVRYSLQQSRYLEAKSEFINQWFKNGTHLTTDIIWDGAGINPNAALTIFRHFDSASVVQGLVGEPPKTAWIMDYALLERIHYLLVAGFDVYGNFGHQLITRMFMDFLRMEGESNFVALLPRDMRHQELSSWYQNQSVQFSDFLQRNVKPFDQPTSVNYVTDNPKQELFAKLRKQVQSVLSDRYVITQTGFKAEHEFALRQIDHLRGEGLLPIPQLMMLMIESEQGKPQLFTLIHNNAHTNISSLFDEQNNRDPKNDNLTLVRGVVGSYPSAYLTLKENQIPELYQRLAAMKSEQDYVALLDRFAVRRSSPEFWAFSDLVHQWYRQDQPIEFGLLDYNRFENRLEHHHHHH", "soluble on expression in E. coli": "not soluble"}, {"sequence": "MIQHTMLKLYWANFTTAQLHHLTSTYPDFLSENVFHQHDMIKRWLTERNSERLWNKYERFKELKLMDIIKEMKKANVSFTTYFDDNYPSLCKEMYDYPYVIFYKGNPQFFNHSHSLAVIGSRNATQYTSQSLNYLFPSFRQLNMAIVSGLARGADSVAHQTALKYLLPTIGVLGFGHCYHYPKATLNLRTKVERNGLVISEYPPFSPISKHKFPERNRLISGLSRGVLITEAEERSGSQITIDCALEQNRNVYVLPGSMFNKMTKGNLRRINEGAQVVIDESSILYDYLF", "soluble on expression in E. coli": "not soluble"}, {"sequence": "MGSDKIHHHHHHMAYRKQLTRLKAPYLKRILLDPGRVEDWEKYPWNLPLFRGREFELEFTAPITIIVGENGTGKSTLLEAIGALAGYDEAGGGKGYMPVDHSRAIDKSGAALADNFRCHWLPKVTAGWFFRAESFYSVARYLDEAARESGATPPDFLSWSHGEGFIRFFEERCRRQGIYILDEPESALSPSRQIELLKMLRRMDQSGTAQVIMATHSPLLMACPGARLFRISRFGLEPADFRDTDHFRMLRDFSNDPDGFLAEALYEDEA", "soluble on expression in E. coli": "not soluble"}, {"sequence": "MGEVKDLGMADHGGFDLKIGARVVLEDVKLGDSIAVNGTCLTVTEFNAEEFTVGLAPETLRKTSLEELKKGSPVNLERALQPVSRMGGHVVQGHVDGTGVIESMEVEGDSLWVKVKADKGLLKYIVPKGFVAVDGTSLTVVDVFDEESCFNFMMIAYTQQNVVIPTKKIGQKVNLEVDIMGKYVERLLTSGGFSKGN", "soluble on expression in E. coli": "soluble"}, {"sequence": "IIGQVDEISTTDLIEEEENAVLITAEGYAKRMSLEEFRVQSRGGVGVIGASVSPGDEIAVFRICNSTDRLLIFTNTGRAFWINAYEIPKMDRTARGTTLKRLIRLENGEKVVSALGVKDF", "soluble on expression in E. coli": "soluble"}, {"sequence": "MGSDKIHHHHHHMVSEECSSFFYLHNSDFNMFGKKKNEDYSVKTVKVGVDKLTTIALGTMVKGTITVEGDLRLDGIIEGNVSCRGKVVIGPQGRIKGNVTCTGAVLHGMLQGDIQVAEDLIMKSGCTMNGDVYTCKLEIESKARFNGTCNTTEKDTLVTSQVVKPETVDTEK", "soluble on expression in E. coli": "not soluble"}, {"sequence": "GCALNCSFCSTAKQGFNRNLSTAEIIGQVWLAARELSDNNGTHDKKITNVVMMGMGEPLLNFDNVVSAMNIMMDDLAYGLSKRRVTLSTSGVLPEMERLREVSPVALAVSLHAPTDELRNELVPINKKYPLSQLISLCKRYFKDEPRRKVTFEYVMLKGVNDQPEHASQLIKLLHNVPAKVNLIPFNPFPLTQYQRSSRETIDAFRDKLMKHGINTITRKTRG", "soluble on expression in E. coli": "not soluble"}, {"sequence": "MRKMADPLVPKEALEWFKSKGIKPGFDYRDVWKEEQANAFTVAKMLNADLLVEVKQLVEDAIGQGQTFEQFRDILKPLLVKSGWWGVQTMQDPLTDETKLVQLGSEGRIKTIYKTNMRTARSAGQWERIQRTKRTMPYLLYQLGPSEQHRIEHLKWNNTLLPADDPWWDVHMTPNGWGCKCWIRQVSQYEADKLIAAGTVKTTVPASKNKQWVNRRTGEVEVLPEGIDPGWNYNPGKNREKMLAADLALKESRMRQTLANGS", "soluble on expression in E. coli": "soluble"}, {"sequence": "MTLKLTYFDIRGLAEPIRLLLNDQEIPFEDNRISREEWAEMKSTMIFAQLPCLHIGTETIVQSAAILRHLGRIYGLNGSTESETSFIDMFSEGLRDLRTKYFTMIKTDYEDGKEAYITETLPGELLRIEKLFCTFNNGENFVSGDKLSYADYALFELLDIHLILTPTALNGTPALKRFHGRFAERPNMRLYLNKRAELNPFVSGNGKQ", "soluble on expression in E. coli": "not soluble"}, {"sequence": "MENQAALCVLLSDRANTHAHIFVHPHFLSFTLTKSCFCCGNLIYWFVTLYLNFRSRKKSEKMRSRSGSGVRLDRILFMVEQTICSHQNPITALFANQKDFPGHAWVRDNVYIAQALWALYRAYMKCADFDEDLTKAKELGFTCVKMMQSILECLMRQAEKVELFKKYQRPLDALHSKFAVGTKGTVCGDADWGHLQMDAISLYLLTLAQITASGLQVVRNFDEVAFIQNLVYYIETGYRTPDYGVWERGDKTNQGIRELNASSIGMVKAALQALNDVGDLFVDGSRGSVVHVLPDEIEQCSAVLSSMLPRESFSKETDAALLGIISYPAFCVEDPELVSQTRETITQRLLGKYGCRRFMRDGYKTVLEDASRLYYNKSELQQFEDIECEWPIFLCYLILDAMYSKDDDAVEAYWRQLESVLVLSDKGFRLVPELYVVLKEHVSAEKAHPGTQDRVPGGATPFLWAQSLYVIICLLYEGFLLPAELDPLSRRLSVYEKRPPCEVQVTVLAESLDVQRELRAHDIHVQCVDEIDPVFTILPASALGQLLAKIGESKKLNLSGRPLDRPIGLLSTSRLYQIGNKFVIFTPQFMDSRRSHLMYDIRILTDEWSSELQYIYASWNSVSISGRPLVVLVITQGMLSTEGLSHFSNIHLNRHMKSTVIGAIKKINTGYLSGARVVMKDLSDFFRTTAVSKMEFRDKSAEDTLRSVAAEKVQFTLLTEDATEAKNEKITTPRGPRTLRRGESVKDRSAYTAVHKASMRHRSIALDSNDADLMKLRLAYKSRPRDLQDMDSTYQSPPPTQTPLGLVKEHSSGELRQQLLKTTRRGAENETTHRDLTAEQMNEMKADDLLDLVNETTVLEEQISIVHCLWMKFGPDYDTELGCQHITVRMLMEEVHTKACEAREWALVRLTAGLLKKQLEEPQQSCYSSFVSPFELKSMIFSLLSGRLLEEYAEDGIHYSDTIRETRTGIGSFRRQIEERKSLRKSTRSVGGLEIPKEEDEDEEADEDDFQFGIWLRHRRIDGALNRVPNGFYAILWDTVHKMPHGVKINDTVLHWGLTQEMTRKEIKFALESEEALNRIAEPEYRELVVETLWLLGRLEKLVLLEQPNIPRDRPLDVDHILHVANQIFVDHNKHLETIVMECCASSNPNNTRCDGARNICKHFYDSAPAGEYGTSHYIIRALMQLYS", "soluble on expression in E. coli": "not soluble"}, {"sequence": "RNAAHQLYYRPTPDDGYLLAGYPWFDVRARDLFVALPGCTLCVEAPERFERIVNTVIPAMERYMRLHEDDDTIHGLHEPDVGIWAIWAIQQYARRNGLEAAKRFGSFVSEVVSYYLSAQHPTAQIRENGLLYVLGTGFPLSWMDAKLNGKAVIPREGYLVELNALWYNALCFERELNGEKPEIGEIISRIERSFPDTFLNCYNYLFDYVQDGKAQDWSVRPNMLFAISLPYSPLQRDRQLQVLEIITRELLTPKGLRSLSPKSEGYRPYCRGKQEERELAYYNGSVWPWLLGQYTEAYLRLYGNSGVTFLERMLIGMEEELQMHGIGTISELFDGNPPFMGRGAISFAMSVGEILRAKELLNRTESDMHLSVRHMYNYTKWKG", "soluble on expression in E. coli": "not soluble"}]}]}
